In experiment [1] the target is von Willebrand factor (vWF) (UniProt P04275). Briefly: vWF binding ELISA divided by total antigen ELISA, relative to BDD. (In an ELISA, binding on a coated surface is turned into a signal by an enzyme label.)
For experiment [2] the target is unchanged. Briefly: vWF binding ELISA (FVIII bound to vWf in severe hemophilic plasma, captured on anti-vWf mAb) divided by total antigen ELISA, relative to BDD.
Experiment [3] has the same target. Briefly: vWF binding ELISA value divided by total antigen ELISA value.
For experiment [4] the target is unchanged. Briefly: vWF binding ELISA, FVIII bound to vWf in severe hemophilic plasma.
For experiment [5] the target is unchanged. Briefly: vWF binding ELISA divided by total antigen ELISA.
Experiment [6] shares this target. Briefly: vWF binding ELISA divided by total antigen ELISA, relative to starting KG-2.

Chain of B domain deleted FVIII (BDD) (P00451 other isoform, or with tags, fused parts or gaps limits assumed): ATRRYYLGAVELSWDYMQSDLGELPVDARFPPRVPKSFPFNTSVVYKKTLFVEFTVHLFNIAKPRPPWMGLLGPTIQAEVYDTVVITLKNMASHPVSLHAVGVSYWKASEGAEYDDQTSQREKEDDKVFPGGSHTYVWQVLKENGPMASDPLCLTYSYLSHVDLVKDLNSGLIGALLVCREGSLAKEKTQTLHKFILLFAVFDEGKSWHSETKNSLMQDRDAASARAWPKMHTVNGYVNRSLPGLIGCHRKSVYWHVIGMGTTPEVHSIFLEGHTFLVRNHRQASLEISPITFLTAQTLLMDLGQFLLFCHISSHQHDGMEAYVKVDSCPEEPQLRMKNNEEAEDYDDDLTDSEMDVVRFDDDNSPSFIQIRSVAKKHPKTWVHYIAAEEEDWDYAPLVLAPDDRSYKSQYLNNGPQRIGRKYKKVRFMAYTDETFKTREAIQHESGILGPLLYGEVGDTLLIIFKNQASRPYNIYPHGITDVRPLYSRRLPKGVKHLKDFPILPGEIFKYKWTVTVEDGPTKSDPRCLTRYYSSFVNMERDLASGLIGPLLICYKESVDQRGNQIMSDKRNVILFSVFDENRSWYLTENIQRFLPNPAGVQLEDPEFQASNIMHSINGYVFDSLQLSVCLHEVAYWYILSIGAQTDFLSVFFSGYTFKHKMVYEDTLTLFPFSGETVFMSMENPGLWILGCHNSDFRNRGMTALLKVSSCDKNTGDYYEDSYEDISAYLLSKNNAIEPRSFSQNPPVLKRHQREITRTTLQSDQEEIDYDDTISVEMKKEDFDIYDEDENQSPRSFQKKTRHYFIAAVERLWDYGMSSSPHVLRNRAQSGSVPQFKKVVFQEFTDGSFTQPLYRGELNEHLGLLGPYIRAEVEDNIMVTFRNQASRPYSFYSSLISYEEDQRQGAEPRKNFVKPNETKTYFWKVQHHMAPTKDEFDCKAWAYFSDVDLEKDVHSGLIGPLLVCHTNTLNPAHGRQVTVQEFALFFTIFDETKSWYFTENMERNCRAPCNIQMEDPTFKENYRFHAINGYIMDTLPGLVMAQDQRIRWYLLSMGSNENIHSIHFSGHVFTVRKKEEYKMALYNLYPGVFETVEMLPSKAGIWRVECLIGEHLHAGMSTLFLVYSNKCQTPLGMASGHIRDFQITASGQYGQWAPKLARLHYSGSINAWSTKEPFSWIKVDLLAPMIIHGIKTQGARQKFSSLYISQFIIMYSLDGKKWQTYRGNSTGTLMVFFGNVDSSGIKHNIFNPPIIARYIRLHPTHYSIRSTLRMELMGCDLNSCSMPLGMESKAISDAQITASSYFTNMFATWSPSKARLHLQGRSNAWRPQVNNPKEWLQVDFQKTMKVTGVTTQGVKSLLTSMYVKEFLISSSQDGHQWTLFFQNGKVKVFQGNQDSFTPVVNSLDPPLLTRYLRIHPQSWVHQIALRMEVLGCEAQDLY
Chain of PEG2 red (PEG2 mutein treated with reductant followed by removal of reductant) (P00451 other isoform, or with tags, fused parts or gaps mutant): as the sequence (P00451 other isoform, or with tags, fused parts or gaps limits assumed) above, with L491C counted along it

For “PEG2 mutein (L491C BDD FVIII) (from UniProt P00451 20-2351)”, the percent specific activity vWF/TAE relative to BDD in experiment [1] was found to be 138%.
As for “PEG6 mutein (K1808C BDD FVIII) (from UniProt P00451 20-2351)”, in experiment [1], the percent specific activity vWF/TAE relative to BDD was found to be 100%.
Regarding “PEG2-5 kD PEG (L491C BDD FVIII PEGylated with 5 kD PEG-maleimide) (from UniProt P00451 20-2351)”, the percent specific activity vWF/TAE relative to BDD in experiment [1] turned out to be 125%.
For “PEG2 red (PEG2 mutein treated with reductant followed by removal of reductant) (from UniProt P00451 20-2351)”, in experiment [1], the percent specific activity vWF/TAE relative to BDD came out at 98%.
Regarding “PEG6-33 kD PEG (K1808C BDD FVIII PEGylated with 33 kD PEG-maleimide) (from UniProt P00451 20-2351)”, the percent specific activity vWF/TAE relative to BDD in experiment [1] worked out at 90%.
“B domain deleted FVIII (BDD) (from UniProt P00451 20-2351)”: in experiment [2], the percent specific activity vWF/TAE relative to BDD was determined as 100%. Further, the vWF/TAE (specific vWF binding activity) in experiment [3] was 1 vWF/TAE.
For “PEG2-43 kD PEG (L491C BDD FVIII PEGylated with 43 kD PEG-maleimide) (from UniProt P00451 20-2351)”, the percent specific activity vWF/TAE relative to BDD in experiment [1] stood at 57%.
“PEG2-12 kD PEG (L491C BDD FVIII PEGylated with 12 kD PEG-maleimide) (from UniProt P00451 20-2351)”: the percent specific activity vWF/TAE relative to BDD in experiment [1] is 71%.
As to “KG-2-30 kD PEG (wildtype full length FVIII PEGylated with 30 kD PEG) (from UniProt P00451 20-2351)”, in experiment [4], the vWF ELISA (FVIII bound to vWf) was 0.19 µg/mL. For the same substance, the vWF/TAE (ratio (vWF ELISA ug/mL / TAE ug/mL)) in experiment [5] came to 0.32. Besides, the % Start (vWF/TAE) in experiment [6] was found to be 100%.
Taken in the same sequence, the figures for “wildtype full length FVIII (KG-2) (from UniProt P00451 20-2351)” were 0.42 µg/mL, 0.32 and 100%.
Turning to “PEG2-33 kD PEG (L491C BDD FVIII PEGylated with 33 kD PEG-maleimide) (from UniProt P00451 20-2351)”, the percent specific activity vWF/TAE relative to BDD in experiment [1] was 59%.
Same read-out and setting: for “PEG2-22 kD PEG (L491C BDD FVIII PEGylated with 22 kD PEG-maleimide) (from UniProt P00451 20-2351)” the value was 87%.
In experiment [4], “KG-2-22 kD PEG (wildtype full length FVIII PEGylated with 22 kD PEG) (from UniProt P00451 20-2351)” yielded a vWF ELISA (FVIII bound to vWf) of 0.19 µg/mL. The vWF/TAE (ratio (vWF ELISA ug/mL / TAE ug/mL)) in experiment [5] is 0.3. Further, the % Start (vWF/TAE) in experiment [6] turned out to be 94%.

The values are drawn from patent US20060115876A1.
